Source: PMC11813584, “An odorant-binding protein functions in fire ant social immunity interfacing with innate immunity” (Open Biology, 2025)

Molecular target: SiOBP15, purified, His-tag removed (Solenopsis invicta)
Assay: SPR; open SPR; SiOBP15 coupled to a COOH chip until saturation, SiApoLp-III or SiFABP5 titrated as analyte; one-to-one model (TraceDrawer)

Kd: 1100 nM
Substance: SiFABP5, purified, His-tag removed (natural protein)
